Reference: the supplement of paper PMC10126150
± gives the standard deviation of the averaged measurements.

Tested on: ATP
Test: switch fluorescence ratio, 500 uM ATP over buffer (Cy3 cluster intensity, sum of 5 cycles each) (fold (ratio)); higher = stronger signal-on switching upon ATP binding; sequences stand for … in TCGTCGGCAGCGTCAGATGTGTATAAGAGACAGTTTTTTTTTTTTTTTTTTTTTTTTT…TC
Conditions: aptamer strand: ATP DNA aptamer (quencher-CACCTGGGGGAGTATTGCGGAGGAAGG + anchor), 100 nM annealed; ATP concentration: 500 uM
Summary of the method: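 Clusters with intensities outside 100-1000 RFU were excluded. The remaining Cy3-labelled switching-strand clusters on a modified Illumina MiSeq flow-cell had been annealed to 100 nM quencher-labelled ATP aptamer and imaged in selection buffer, then after 15 min with 500 uM ATP at 22 °C, for five cycles separated by NaOH stripping and re-annealing. The fluorescence ratio, averaged per switch-domain sequence, is each cluster's summed target-cycle Cy3 intensity over its summed buffer-cycle Cy3 intensity.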
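Further: ATP exposure 15 min at 22 °C before imaging.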

Sequence | switch fluorescence ratio
TTTTCAGAGT | 1 ± 0.022
TTTTCAGGCG | 1 ± 0.07
TTTTCATGGG | 0.995 ± 0.013
TTTTCATTCC | 1.13 ± 0.15
TTTTCATTGT | 1.02 ± 0.036
TTTTCCAAAT | 1.02 ± 0.024
TTTTCCCCGT | 1.38 ± 0.56
TTTTCCGGGC | 1.1 ± 0.014
TTTTCCTACG | 2.38 ± 1.6
TTTTCCTGGA | 1.03 ± 0.066
TTTTCCTTTT | 1.04 ± 0.082
TTTTCGAGGG | 1.01 ± 0.023
TTTTCGATGG | 1.01 ± 0.016
TTTTCGATTG | 1.01 ± 0.041
TTTTCGCTAA | 1.55 ± 0.96
TTTTCGGGAA | 1.011 ± 0.0057
TTTTCGGGGA | 0.978 ± 0.018
TTTTCGGGTT | 1 ± 0.04
TTTTCGTGGG | 0.986 ± 0.027
TTTTCTATGT | 1 ± 0.019
TTTTCTCCGT | 1.3 ± 0.43
TTTTCTGCCG | 1.03 ± 0.045
TTTTCTGGTT | 0.97 ± 0.054
TTTTCTGTG | 0.977 ± 0.031

Sequence | switch fluorescence ratio
TTTTCTGTTA | 1.032 ± 0.0085
TTTTCTTATC | 1.02 ± 0.048
TTTTCTTGGT | 1.01 ± 0.012
TTTTCTTGTC | 1.038 ± 0.0076
TTTTCTTGTT | 0.9949 ± 0.0062
TTTTCTTTAA | 0.9798 ± 0.0051
TTTTGAAATT | 1 ± 0.046
TTTTGAACCC | 0.984 ± 0.08
TTTTGAATCG | 1.008 ± 0.0091
TTTTGACGCT | 0.977 ± 0.012
TTTTGACGGA | 0.994 ± 0.027
TTTTGAGCAC | 1.16 ± 0.26
TTTTGAGGGC | 1.01 ± 0.059
TTTTGAGGGG | 1.01 ± 0.042
TTTTGATAAT | 0.991 ± 0.016
TTTTGATCTA | 0.97 ± 0.019
TTTTGATTCC | 1.036 ± 0.009
TTTTGATTTC | 1.02 ± 0.039
TTTTGATTTG | 1 ± 0.034
TTTTGCAGCC | 0.976 ± 0.02
TTTTGCAGGT | 1.03 ± 0.026
TTTTGCATGA | 1 ± 0.043
TTTTGCGAGG | 1.03 ± 0.014
TTTTGCGCAA | 0.9922 ± 0.0048

Sequence | switch fluorescence ratio
TTTTGCGCTC | 1 ± 0.027
TTTTGCGCTG | 0.94 ± 0.019
TTTTGCGGGT | 0.983 ± 0.032
TTTTGCGGTC | 1.02 ± 0.053
TTTTGCTGAC | 1.14 ± 0.1
TTTTGCTGCG | 1.023 ± 0.0033
TTTTGCTTGA | 1.07 ± 0.052
TTTTGGAATG | 1.011 ± 0.0027
TTTTGGAGCC | 1.06 ± 0.046
TTTTGGAGCG | 1.05 ± 0.052
TTTTGGAGGT | 1.01 ± 0.013
TTTTGGATTA | 1 ± 0.039
TTTTGGCCCC | 1.07 ± 0.084
TTTTGGGAT | 1.04 ± 0.15
TTTTGGGCTG | 1 ± 0.067
TTTTGGGTAG | 0.984 ± 0.03
TTTTGGGTAT | 0.985 ± 0.032
TTTTGGGTGG | 0.988 ± 0.034
TTTTGGTAAC | 1.014 ± 0.0072
TTTTGGTATT | 1.02 ± 0.044
TTTTGGTCAA | 1.02 ± 0.037
TTTTGGTCCA | 0.981 ± 0.015
TTTTGGTCGG | 0.983 ± 0.022
TTTTGTAGTT | 1 ± 0.043

Sequence | switch fluorescence ratio
TTTTGTATTA | 0.99 ± 0.029
TTTTGTCGCG | 0.9735 ± 0.0032
TTTTGTCTTT | 1 ± 0.032
TTTTGTGACA | 1 ± 0.027
TTTTGTGG | 1.01 ± 0.073
TTTTGTGTA | 0.994 ± 0.022
TTTTGTGTTT | 0.997 ± 0.028
TTTTGTTAAT | 1.01 ± 0.035
TTTTGTTCAG | 0.985 ± 0.037
TTTTGTTCCT | 1.02 ± 0.026
TTTTGTTGCG | 1.03 ± 0.043
TTTTTAAATG | 0.991 ± 0.017
TTTTTAACCT | 1.57 ± 0.36
TTTTTAAGTT | 1 ± 0.028
TTTTTAATGC | 0.979 ± 0.034
TTTTTAATTA | 1.005 ± 0.008
TTTTTAATTG | 0.997 ± 0.024
TTTTTACCCG | 1.01 ± 0.013
TTTTTACCGA | 1.014 ± 0.0082
TTTTTAGACG | 0.981 ± 0.057
TTTTTAGAG | 0.999 ± 0.021
TTTTTAGAGA | 0.9912 ± 0.007
TTTTTAGGGG | 1.02 ± 0.055
TTTTTAGTAA | 0.979 ± 0.028

Sequence | switch fluorescence ratio
TTTTTAGTAC | 0.99 ± 0.013
TTTTTATGAG | 1 ± 0.036
TTTTTATGCA | 1.018 ± 0.0031
TTTTTATTAT | 1.01 ± 0.036
TTTTTATTCT | 1.02 ± 0.02
TTTTTATTGT | 0.997 ± 0.035
TTTTTCAATC | 1.07 ± 0.035
TTTTTCACTA | 1.03 ± 0.033
TTTTTCAGGG | 1.01 ± 0.026
TTTTTCAGGT | 0.997 ± 0.015
TTTTTCCAAA | 1 ± 0.041
TTTTTCCCGA | 1.018 ± 0.0038
TTTTTCCCGG | 1.17 ± 0.23
TTTTTCCGCT | 1.86 ± 1
TTTTTCCGTA | 1.02 ± 0.059
TTTTTCGAGG | 0.997 ± 0.025
TTTTTCGATA | 1.06 ± 0.029
TTTTTCGCTC | 1.01 ± 0.042
TTTTTCGGGG | 1.02 ± 0.032
TTTTTCGTTA | 1.1 ± 0.083
TTTTTGAGTA | 1.02 ± 0.03
TTTTTGATAC | 1.063 ± 0.0034
TTTTTGCTTC | 1.02 ± 0.043
TTTTTGGAAT | 1 ± 0.028

Sequence | switch fluorescence ratio
TTTTTGGACC | 1.1 ± 0.22
TTTTTGGATA | 1.02 ± 0.014
TTTTTGGCCA | 1.01 ± 0.051
TTTTTGGCCC | 0.9649 ± 0.0018
TTTTTGGCGG | 0.978 ± 0.038
TTTTTGGGAA | 0.996 ± 0.029
TTTTTGGTGT | 1.03 ± 0.036
TTTTTGTAAG | 0.998 ± 0.043
TTTTTGTACG | 0.998 ± 0.025
TTTTTGTCGC | 0.992 ± 0.025
TTTTTGTCTT | 0.96 ± 0.023
TTTTTGTGAC | 0.999 ± 0.027
TTTTTGTGGC | 0.985 ± 0.03
TTTTTGTGGG | 0.993 ± 0.023
TTTTTGTTAC | 1.08 ± 0.027
TTTTTGTTAG | 0.965 ± 0.024
TTTTTGTTAT | 0.996 ± 0.02
TTTTTTAAAT | 0.987 ± 0.022
TTTTTTAACT | 1 ± 0.046
TTTTTTAAGC | 1.01 ± 0.018
TTTTTTAAGG | 1 ± 0.034
TTTTTTACTG | 0.991 ± 0.026
TTTTTTAGCC | 1.02 ± 0.091
TTTTTTAGT | 0.992 ± 0.027

Sequence | switch fluorescence ratio
TTTTTTATCT | 1.05 ± 0.07
TTTTTTATGC | 0.997 ± 0.018
TTTTTTCCCC | 1.04 ± 0.047
TTTTTTCGCT | 1.02 ± 0.047
TTTTTTCGTG | 1.001 ± 0.0077
TTTTTTCTG | 1.04 ± 0.097
TTTTTTGATA | 0.981 ± 0.022
TTTTTTGC | 0.955 ± 0.011
TTTTTTGCT | 0.996 ± 0.039
TTTTTTGGCT | 0.995 ± 0.025
TTTTTTGTAC | 1.06 ± 0.037
TTTTTTTAAT | 1 ± 0.028
TTTTTTTAGG | 0.982 ± 0.03
TTTTTTTATG | 0.989 ± 0.037
TTTTTTTATT | 1 ± 0.03
TTTTTTTCAT | 1 ± 0.028
TTTTTTTCCA | 1.02 ± 0.013
TTTTTTTGCT | 0.994 ± 0.024
TTTTTTTGTC | 1.02 ± 0.028
TTTTTTTTTC | 1.04 ± 0.11
TTTTTTTTTT | 1.01 ± 0.083
